Measured values from PMC12489471, “A multi-dentate, cooperative interaction between endo- and exo-ribonucleases within the bacterial RNA degradosome” (Nucleic Acids Research, 2025).

Legend:
PNPase core = assay: Cryo-EM of E. coli PNPase core:RNase E complex; format: binding; conditions: 20 mM Tris–HCl pH 8.0, 25 mM MgCl2, 150 mM KCl, 1 mM TCEP
Experimental: The PNPase core encoding sequence from E. coli (aa 1–552), Salmonella enterica serovar Typhimurium (UniProt: Q8ZLT3) (aa 1–552), or Pseudomonas aeruginosa (strain PAO1, UniProt: Q9HV59) (aa 1–553) was amplified using corresponding genomic DNA as a template and cloned into pExp-Mxe-CHis expression vector. The protein of interest, produced as a fusion with C-terminal 8×His-tagged Mycobacterium xenopi GyrA intein, was expressed in Evo21(DE3) cells at 18°C overnight following induction with 0.4 mM IPTG. […] After cleavage, the protein buffer was exchanged using HiPrep 26/10 desalting column (Cytiva), and the protein solution was reapplied to Ni-NTA resin to remove His-tagged intein and uncleaved material. […]
Purified PNPase core and RNE-muGFP-CHis proteins were mixed in 1:2 ratio and their complex were separated on the Superdex 200 Increase 10/300 GL column (Cytiva) equilibrated with cryo-EM Buffer (20 mM Tris–HCl, pH 8.0, 25 mM MgCl2, 150 mM KCl, 1 mM TCEP). […] The samples were mixed with CHAPSO (3-([3-cholamidopropyl]dimethylammonio)-2-hydroxy-1-propanesulfonate) at a final concentration of 8 mM before being applied onto R2/2 Au Ultrafoil grids (Quantifoil) that had been pre-treated by glow-discharge (PELCO easiGLOW: 60 s, 25 mA, 0.39 mBar). […]

full-length PNPase = assay: Cryo-EM of full-length PNPase:RNase E 960–1061; format: binding, E. coli

B1: RNase E 960 – 1061 wildtype: wildtype RNase E peptide 960–1061 (peptide)
chain: VVETAEVVVAEPEVVAQPAAPVVAEVAAEVETVAAVEPEVTVEHNHATAPMTRAPAPEYVPEAPRHSDWQRPTFAFEGKGAAGGHTATHHASAAPARPQPVE
modifications: left off: His6, N-terminal, cleaved | MBP, N-terminal, cleaved | intein, C-terminal, cleaved | choline-binding domain, C-terminal, cleaved
- binding mode / stoichiometry with E. coli PNPase core (PNPase core): interacting with two protomers of the trimeric PNPase core
- location of extra density / binding on PNPase (full-length PNPase; cryo-EM, PNPase:RNase E 960–1061): bridging two b-strands
- interaction with KH and S1 domains of PNPase (full-length PNPase; preliminary cryo-EM map, full-length PNPase): does not interact with the KH and S1 domains of PNPase
